Data as given in the supplement of paper PMC7125110.
± gives the standard error. For part of these data: This sample holds only a part of the variants without activity.

B1: glmS ribozyme (parent)
chain: AUAAAAGCGCCAGAACUACAGAAAUGUAGUUGACGAGGAGGAGGUUUAUCGAAUUUUCGGCGGAUGCCUCCAAA

Assays:
Conditions in all cases: with glucosamine-6-phosphate
glucosamine-6-phosphate [1] = variants of: B1; assay: self-cleavage kobs at 40 uM GlcN6P; higher = faster cleavage; RNA array
Method in brief: (§1)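 Weighted Michaelis–Menten fits across concentrations supplied kcat and KM, based on kobs from one- or two-exponential decay fits to normalised per-tile medians. The data came from barcoded ribozyme variants transcribed in situ by E. coli RNA polymerase on sequenced MiSeq chips and tracked at 37 °C by a hybridised Cy3 probe. Glucosamine-6-phosphate (40 μM to 10 mM) in HEPES/KCl/Mg(OAc)2 buffer was flowed in.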

glucosamine-6-phosphate [2] = variants of: B1; assay: self-cleavage kobs at 10000 uM GlcN6P; higher = faster cleavage; RNA array
Method in brief: as §1

glucosamine-6-phosphate [3] = variants of: B1; assay: self-cleavage kobs at 640 uM GlcN6P; higher = faster cleavage; RNA array
Method in brief: as §1

glucosamine-6-phosphate [4] = variants of: B1; assay: self-cleavage kobs at 2500 uM GlcN6P; higher = faster cleavage; RNA array
Method in brief: as §1

glucosamine-6-phosphate [5] = variants of: B1; assay: self-cleavage kobs at 160 uM GlcN6P; higher = faster cleavage; RNA array
Method in brief: as §1

glucosamine-6-phosphate [6] = variants of: B1; assay: KM; higher = weaker cofactor use; RNA array
Method in brief: as §1

Row | Variant | self-cleavage kobs at 40 uM GlcN6P (glucosamine-6-phosphate [1]) [s⁻¹] | self-cleavage kobs at 10000 uM GlcN6P (glucosamine-6-phosphate [2]) [s⁻¹] | self-cleavage kobs at 640 uM GlcN6P (glucosamine-6-phosphate [3]) [s⁻¹] | self-cleavage kobs at 2500 uM GlcN6P (glucosamine-6-phosphate [4]) [s⁻¹] | self-cleavage kobs at 160 uM GlcN6P (glucosamine-6-phosphate [5]) [s⁻¹] | KM (glucosamine-6-phosphate [6]) [µM]
1 | ACAAAACCGCCAGAACUACAGAAAUGUAGUUGACGAGGAGGGGGUUUAUCGAAUUAUCGGAGGAUGCCUCCAAA [U2C G7C A42G U56A C61A] | < 1e-05 | < 1e-05 | – | – | – | –
2 | AUAAACGCGUCAGAACUACAGAAAUGUAGUUGGCGAGGAGUAGGUUGAUCGAAUCUUCGGCGGAUGCCUCCAAA [A6C C10U A33G G41U U47G U55C] | < 1e-05 | < 1e-05 | < 1e-05 | – | – | –
3 | AUAAACGCGCCAGAUCUACAGAAAUGUAGUUGUCGAGGAGGAGGUUUAUCGAAUUUUCGGCGGAUGCCGCCAAA [A6C A15U A33U U69G] | < 1e-05 | – | – | – | – | –
4 | AUAAACGCGCGAGAACUACAGAAAUGUAGGUGACUAGGAGGAGGUUUAUGGAAUUUUGGGCGGAUGCCUCCAAA [A6C C11G U30G G35U C50G C58G] | 0.00011 ± 2.3e-05 | 0.000175 ± 5.1e-05 | – | 0.000242 ± 4.4e-05 | – | –
5 | AUAAUCGCGCCGGAACUACAGAAAUGUAGUUAACGAGGAGGAGGUUUAUCUAAUUUUCGGCGGAUGCCUCCAAA [A5U A6C A12G G32A G51U] | < 1e-05 | < 1e-05 | – | – | – | –
6 | AUAAACGCGUCAGAACUACAGAAAUGUAGUUGACGAGGAGGAGGUUUAUCGAAUUUUCGGCGGAUGACUCCAAA [A6C C10U C67A] | < 1e-05 | – | – | – | – | –
7 | CAUAAAAGCGCCAGACUACAGAAAUGUAGUUGACGAGGAGGAGGUUUAUCGAAUUUUCGGCGGAUGCCUCCAAA [A1C U2A A3U G7A C8G G9C C10G A12C G13A A14G] | 6.43e-05 ± 1.4e-05 | 0.00344 ± 0.00044 | – | – | – | –
8 | AUAAACGCGCCAGAUCUACAGAAAUGUAGUUGACGAGGAAGAGGUUUAUCGAAUUUUCGGCGGAUGCCUCCAAA [A6C A15U G40A] | < 1e-05 | < 1e-05 | – | < 1e-05 | – | –
9 | AUAAACGCGCCUGAACUACAGAAAUGUAGUUGACGAGGAGGUGGUUUAUCGAAUUUUCGGCGGAUGCCUCCAAA [A6C A12U A42U] | < 1e-05 | < 1e-05 | < 1e-05 | – | – | –
10 | CUAAAAGCGCUAGAACUACAGAAAUGUAGUUGACGAGGAGGAGGUUUAUCGAAUUUUCGGCGGGUGCCUCCAAA [A1C C11U A64G] | 8.55e-05 ± 2.5e-05 | 0.00142 ± 0.00035 | – | – | – | –
11 | AUAAACGCGCCAGAACUACAGAAAUGUAGUUGUCGAGGAGGAGGUUUAUCGAAUUUUCGGCGGAUGCCUCCAAA [A6C A33U] | < 1e-05 | < 1e-05 | < 1e-05 | < 1e-05 | – | –
12 | AUAAACGCGCCAGAACUACAGAAAUGUAGUUGACGGGGAGGAGGUUUAUCGAAUUUUCGGCGGAUGCCUCCAAA [A6C A36G] | < 1e-05 | < 1e-05 | < 1e-05 | < 1e-05 | < 1e-05 | –
13 | AUAAACGCGCCAGAACUACAGAAAUGUAGUUGACGUGGAGGAGGUUUAUCGAAUUUUCGGCGGAUGCCUCCAAA [A6C A36U] | < 1e-05 | < 1e-05 | – | < 1e-05 | – | –
14 | AUAAACGCGCCAGAACUACAGAAAUGUAGUUGACGAGGAGGAGGUUUAUCGUAUUUUCGGCGGAUGCCUUCAAA [A6C A52U C70U] | < 1e-05 | – | < 1e-05 | – | – | –
15 | AUAAACGUGCCAGAGCUACAGAAAUGUAGUUGACGAGGAGGAGGUUUAUCGAAUUUUCGGCGGAUGCCUCCAAA [A6C C8U A15G] | < 1e-05 | < 1e-05 | – | – | – | –
16 | UGGAUCCAGCCAGAACUACAGAAAUGUACUUUACGAGGAGGAGGUUUAUCGAAUUUUCGUCGGAUGCCUCCAAA [A1U U2G A3G A5U A6C G7C C8A G29C G32U G60U] | < 1e-05 | – | – | – | – | –
17 | AUAAAAGCGCCAGAACUACAGAAAUGUAGUUGACGAGGAGGAGGUUUAUCGAAAUUUCGGAGGAUGCCUCCAAA [U54A C61A] | – | – | – | – | – | 864 ± 400

Row | Variant | self-cleavage kobs at 40 uM GlcN6P (glucosamine-6-phosphate [1]) [s⁻¹] | self-cleavage kobs at 10000 uM GlcN6P (glucosamine-6-phosphate [2]) [s⁻¹] | self-cleavage kobs at 640 uM GlcN6P (glucosamine-6-phosphate [3]) [s⁻¹] | self-cleavage kobs at 2500 uM GlcN6P (glucosamine-6-phosphate [4]) [s⁻¹] | self-cleavage kobs at 160 uM GlcN6P (glucosamine-6-phosphate [5]) [s⁻¹] | KM (glucosamine-6-phosphate [6]) [µM]
18 | AUAAACGCGCCAGAACUACAGAAAUGUAGUUGACGAGGAGGGGGUUUAUCGAAUUUUCGGCGGAUGCCUCCAAA [A6C A42G] | < 1e-05 | 9.6e-05 ± 1.1e-05 | – | 6.82e-05 ± 1.8e-05 | < 1e-05 | –
19 | AUAAACGCGGCAGAACUACAGAAAUGUAGUUGACGAGGAGAAGGUUUAGCGAAUUUUCGACGGAUGCCUCCAAA [A6C C10G G41A U49G G60A] | < 1e-05 | – | – | – | – | –
20 | AUAAACGCGCCAGCACUACAGAAAUGUAGUUGACGAGGGGGAGGUUUAUAGAAUUUUCGGCGGAUGCCUCCAAA [A6C A14C A39G C50A] | < 1e-05 | – | – | – | – | –
21 | AUAAACCCGCCAGAACUACAGAAAUGUAGUUGACGAGGCGCAGGUUUAUCGAAUUUUCGGUGGAUGCCUCCAAA [A6C G7C A39C G41C C61U] | < 1e-05 | – | – | – | – | –
22 | GUAAAAGCGCCAGAACUACAGAAAUGUAGUUGAUGAGGAGGAGGUUUAUCGUAUUUUCGGCGGAUGCCUCCAAA [A1G C34U A52U] | < 1e-05 | – | – | – | – | –
23 | AUAAACGCGCCAGAGCUACAGAAAUGUAGUUGACGAGGAGGAGGGUUAUCGAAUUUUCGGCGGAUGCCUCCAAA [A6C A15G U45G] | < 1e-05 | – | – | – | < 1e-05 | –
24 | AUAAACGCGCCGGAACUACAGAAAUGUAGUUGACGAGGAGGAGGUUUAUCGAAUUCUCGGCGGAUGCCUCCAAA [A6C A12G U56C] | < 1e-05 | < 1e-05 | – | – | – | –
25 | AUAAACGCGCCGGAACUACAGAAAUGUAGUUGACGAGGAGGAGGUUUAUCGAAUUUUCGGCGGAUGCCGCCAAA [A6C A12G U69G] | < 1e-05 | < 1e-05 | – | – | < 1e-05 | –
26 | AUAAACGCGCCAGCACUACAGAAAUGUAGUUGACGCCGAUGAGGUUUAUCGAAUUUUCGGCGGAUCGCUCCAAA [A6C A14C A36C G37C G40U G66C C67G] | < 1e-05 | – | < 1e-05 | – | – | –
27 | AUAAACGCGCCAGAAUUACAGAAAUGUAGUUGACGAGGAGGAGGUUUAUCGAAUUUUCGGCGGAUGCCUUCAAA [A6C C16U C70U] | < 1e-05 | 9.69e-05 ± 1.9e-05 | – | – | – | –
28 | AUAAACGCGCCAGCACUACAGAAAUGUAGUGGACGAGGAGGAGGUUUGUCUAAUUUUUGGAGGAUGCCUCCAAA [A6C A14C U31G A48G G51U C58U C61A] | 8.19e-05 ± 3.4e-05 | – | – | – | – | –
29 | AUAAACGCCCCAGAACUACAGAAAUGUAGUUGACGAGGAGGAGGUUUAUCGAAUUUUCGGCGGAUGCCUCCAAA [A6C G9C] | < 1e-05 | < 1e-05 | < 1e-05 | < 1e-05 | < 1e-05 | –
30 | AUAAACGCGCCAGAACUACAGAAAUGUAGUUGACGAGGAGGAGGUUUCUCGAAUUUUCGGCGGAUGCCUCCAAA [A6C A48C] | < 1e-05 | < 1e-05 | < 1e-05 | < 1e-05 | < 1e-05 | –
31 | AUAAAAGCGCCAGAACUACAGAAAUGUAGUUGACGAGGAGGAGGUUUAUCGAAUUCUCGGCAGAUGCCUCCAAA [U56C G62A] | – | – | – | – | – | 135 ± 63
32 | AUAAAAGCGCCAGAACUACAGAAAUGUAGUUGACGAGGAGGAGGUUUAUCUAAUUUUCGGCGGAGGCCUCCAAA [G51U U65G] | – | – | – | – | – | 63.4 ± 18
33 | AUAAACCCGCCAGAACUACAGAAAUGUAGUUGACGAGGAGGCGGUUUAUCGAAUUUUCGGCGGAUGCCUCUAAA [A6C G7C A42C C71U] | < 1e-05 | < 1e-05 | – | – | – | –
34 | AUAAACGCGCCAGAACUACAGAAAUGUAGUUGACGAGGAGGAGGUUUAUCGGGUUUUCGGCGGAUGCCUCCAAA [A6C A52G A53G] | < 1e-05 | – | – | – | – | –
